Experimental data reported in the nanobody polyreactivity screen of Harvey et al. (2022).

Assay: yeast display, Sf9 membrane polyspecificity reagent, FACS + sequencing; frameworks hold sequencing errors
Summary of the method: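 Synthetic nanobody libraries on Saccharomyces cerevisiae BJ5465 were galactose-induced for 36–48 hours, stained 1 hour at 4 °C with 10% biotinylated, detergent-solubilized Sf9 membrane reagent and enriched on streptavidin microbeads. FACS then separated cells into low and high (top ~1%) gates by anti-HA (expression) and streptavidin (reagent binding) fluorescence. Genes were colony-PCR amplified, MiSeq 2 × 250 sequenced and CDR-length filtered. A clone's polyreactivity label is that of its gate of origin.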
In the case of “QVQLVESGGGLVQAGGSLRLSCAASGFTFYAYAMGWYRQAPGKERELVAAISGSGGRTYYADSVKGRFTISRDNAKNTVYLQMNSLKPEDTAVYYCAADRPGGSYDYWGQGTQVTVSS”, the “polyreactivity (PSR sort gate)” value is reported as “high polyreactivity”.
For “QVQLVESGGGLVQAGGSLRLSCAASGSTFVVNAMGWYRQAPGKERELVAAITQSGGSTFYADSVKGRFTISRDNAKNTVYLQMNSLKPEDTAVYYRGQGTQVTVSS”, the “polyreactivity (PSR sort gate)” value was “low polyreactivity”.
In the case of “QVQLVESGGGLVQAGGSLRLSCAASGGTLFTNAMGWYRQAPGKERELVAAISWRGGRTYYADSVKGRFTISRDNAKNTVYLQMNSLKPEDTAVYYCAAASAAGYDYWGQGTQVTVSS”, the “polyreactivity (PSR sort gate)” value is reported as “low polyreactivity”.
For “QVQLVESGGGLVQAGGSLRLSCAASGSTFGFYAMGWYRQAPGKERELVAAISSAARTYYADSVKGRFTISRDNAKNTVYLQMNSLKPEDTAVYYCSAEAYHWTSYIGYGGVYYWGQGTQVTVSS”, the “polyreactivity (PSR sort gate)” value was “low polyreactivity”.
For “QVQLVESGGGLVQAGGSLRLSCAASGSIFTYYAIGWYRQAPWKERELVAAISWSDGNTYYADSVKGRFTISRDNAKNTVYLQMNSLKPEDSAVYYCAAEYYVSRYWYPYDFYIMNYWGQGTQVTVSS”, the “polyreactivity (PSR sort gate)” value was “high polyreactivity”.
With “QVQLVESGGGLVQAGGSLRLSCAASGSIFNRYAMGWYRQAPGKERELVASISWRTASTYYADSVKGRFTISRDNAKNTVYLQMNSLKPEDTAVYYCAAKILGRPGYYYWGQGTQVTVSS” the “polyreactivity (PSR sort gate)” value was “high polyreactivity”.
For “QVQLVESGGGLVQAGGSLRLSCAASGRTFGNNAMGRYRLAPGKVWELVAAINWSGASTYYADSVKGRFTISRDNAKNTVYLQMNSLKPEDTAVYYCAADYSYIYGFDYWGQGTQVTVSS”, the “polyreactivity (PSR sort gate)” value was “low polyreactivity”.
With “QVQLVESGGGLVQAGGSLRLSCAASGSIFFPYAMGWYRQAPGKERELVAAISQSAGSTFYADSVKGRFTISRDNAKHTVYLQKNSLKPEDTAVYYCAKSGDADFYYTYYYWGQGTQVTVSS” the “polyreactivity (PSR sort gate)” value was “low polyreactivity”.
With “QVQLVESGGGLVQAGGSLRLSCAASGSTFPQYAMGWDRQAPGKERELVAVITDSGGSTYYADSVKGRFTISRDNAKNTVYLQKNSLKPEDTAVYYCAARRWSPRSGLGYGYWGQGTQVTVSS” the “polyreactivity (PSR sort gate)” value was “high polyreactivity”.
In the case of “QVQLVESSGGLVQAGGSLRLTCAASGSTFTIYAIGWYRQAPRKERELVAVISSSGGSTYYADSVMGRFTISRDNAKNTVYLQMNSLKPEDTAVYYCAADTRYVGGYLTLYYWGQGTQVTVSS”, the “polyreactivity (PSR sort gate)” value is reported as “low polyreactivity”.
With “QVQLVESGGGLVQAGGSLRLSCAASGRTFVVNAMGWYRQAPGKERELVAAITRRGGITYYADSVKGRFTISRDNAKNTVYLQMNSLKPEDTAVYYCAADRSYYPDTRTTYGYNYWGQGTQVTVSS” the “polyreactivity (PSR sort gate)” value was “low polyreactivity”.
For “QVQLVESGGGLVQAGGSLRLTCAASGSTFGWYAMGWYRQAPGKGRGVVAAITGDSASTYYADSVKGRFTISRDNAKNTVYLQTNSLKPEDTAVYYCAATKFSAFGSPPLIGYGYWGQGTQVTVSS”, the “polyreactivity (PSR sort gate)” value was “low polyreactivity”.
With “QVQLVESGGGLVQAGGSLRLSCAASGSTFWAYVMGWYRQAPGKERELVAAISSGGTTNYADSVKGRFTISRDNAKNTVYLQMNSLKPEDTAVYYCAAEYPSVYYERFDYWGQGTQVTVSS” the “polyreactivity (PSR sort gate)” value was “low polyreactivity”.
For “QVQLVESGGGLVQAGGSLRFSCAASGGIFRLYGMGWYREAPGKERELVAAIRQSGGRTYYADSVKGRFTISRDNAKNTVYLQMNSLKPEDTAVYYCAADLLYRSSGTVRSDYSRYDYWGQGTQVTVSS”, the “polyreactivity (PSR sort gate)” value was “low polyreactivity”.
For “QDQLVESGGGLVQAGASLRLSCAASGRISYYYTMGWYRQAPGKERELVAAISWSGGTTYYADSVKGRFTISRDNAKNTVYLQMNSLKPDDTAVYYCAAREYYTDVHGTRRYDYWGQGTQVTVSS”, the “polyreactivity (PSR sort gate)” value was “low polyreactivity”.
In the case of “QVQLVESGGGLVQAGGSLRLSCAASGIIFDRYAMGWYRQAPGKEREFVAAISRRGGSTYYADSVKGRFTISRDNAKNTVYLQMNSLKPEDTAVYYCAKEIRYYSSVSESDYWGQGTQVTVSS”, the “polyreactivity (PSR sort gate)” value is reported as “high polyreactivity”.
With “QVQLVESGGGLVQAGGSHPLSCAASGSIFDLYDMGWYRQAPGKERELVAAISLIGGSTSYADSVKGRFTISRDNAKNSVYLQMNSLKPEDTAVYYCAVDSRPYLRDYWGQGTQVTISS” the “polyreactivity (PSR sort gate)” value was “low polyreactivity”.
With “QVQLQESGGGLVQAGGCLRLRCAASRNISGSSDLGWYHQAPGKEREFVASMTSGGTTYYADSVKGRFTISRDNAKYTVYLQMKSQKTEDTAVYYCAVGDPADAEFGYWGQGTQVTVSS” the “polyreactivity (PSR sort gate)” value was “low polyreactivity”.
With “QVQLVESGGGLVQAGGSLRLSCAASGSTFGRYAMGWYRQAPGKERELVAAISRGTTTNYADSVKGRFTFSRDIAKNTVYLQMNSLKPVDTAVYYCAAESPSVFDGYAQLYIILEDYWGQGTQVTVSS” the “polyreactivity (PSR sort gate)” value was “low polyreactivity”.
For “QVQLVESGGGLVQAGGSLRLSCAASGFTFNPNAMGWYRQAPGKERELVAAITWSSGRTYYADSVKGRFTISRDNAKNTVYLQMNSLKPEDTAVYYCAARGYSYNYDYWGQGTQVTVSS”, the “polyreactivity (PSR sort gate)” value was “high polyreactivity”.
In the case of “QVQLVESGGGLVQAGGSLRLSCAASGRTFQWYAMGWYRQAPGKERELVAGISFSGGSTYYADSVKGRFTISRDNAKNTVYLQMNSLKPEDTAVYYCAARRFSPGSSGHGYWGQGTQLTVSS”, the “polyreactivity (PSR sort gate)” value is reported as “high polyreactivity”.
For “QVQLVESGGGLVQAGGSLRLSCAASGRTFYPYAMGWYRPAPGKERELVAAIRWSGGSTYYADSVKGRFTISRDNAKNTVYLQMNSLKPEDTAVYYCNADWKSYRGPKFDYWGQGTQVTVSS”, the “polyreactivity (PSR sort gate)” value was “low polyreactivity”.
In the case of “QVQHVESGGGLVQAGGSLRLSCAASGFTSWKYAMGWYRQAPGKERELVAAISQSGGRTYADSVKGRFTISRDNAKNTVYLQMNSLKPEDTAVYYCAARYPRRSQKYQYWGQGTQVTVSS”, the “polyreactivity (PSR sort gate)” value is reported as “high polyreactivity”.
With “QVQLVESGGGLVQAGGSLRLSCAASGSIFRGNGMGWYTQAPGKERELVAAISRSGGRTYYADSVKGRFTISRDNAKNTVYLQMISLNPEDTAVYSCNAARSYQYDYWGQGTQVTVSS” the “polyreactivity (PSR sort gate)” value was “high polyreactivity”.
For “QVQLVETGGGLVRAGGSLRLSCAASGRPFGRYAMGWYRQGPGKETELVAAITRTGITNYEVSVKGRFTISRDNAKNTVYLHMNSLNPEDTAVYYGAARRWLNCYGTGYGYWGQGTLVTVSS”, the “polyreactivity (PSR sort gate)” value was “high polyreactivity”.
With “QVQLVESGGGLVQAGGSLRLSCAASGFIFGDYAMGWYRQAPGKERELVAAIRCSDSTTYYADSVKGRFTISRDNAKNTVYLQMNSLKPEDTAVYYCAAVGVVPRKKSARVYYWGQGTQVTVSS” the “polyreactivity (PSR sort gate)” value was “low polyreactivity”.
With “QVQLVESGAGLVQAGGSLRLSCAASGRTFINNVMGWYRQAPGKERELVAAINSGSSTKYADSVKRRFTISRDNAKNTVYLQMNSLKPEDTAVYYCAAELWYFSEIGRMDYWGQGTIVTVSS” the “polyreactivity (PSR sort gate)” value was “high polyreactivity”.
In the case of “QVQLVESGGGLVQAGGSLRLSCADSRSIITNNAMGWYRQAPGKERELVAAISGSGGSTYYADSVKGRFTISRDNAKNTVYLQMNSLKPEDTAVYYCAANKSSRRMNYWGLGTQVTVSS”, the “polyreactivity (PSR sort gate)” value is reported as “high polyreactivity”.
In the case of “HVQLQESGGGLVQAGGSLRLSSAASATITYSRNMGWYRQAPGKELELVAAIDRGAITYYADSVKGRFTISRDNAKNTVYLHIYSLKPEDTAVYYCAAVYHDRWDHRFWGQGTQVTVSS”, the “polyreactivity (PSR sort gate)” value is reported as “high polyreactivity”.
For “QVQLVESGGGLVQAGGSLRLSCDSSGSIFGYYAMGWYRQAPGKERELVAAITSGGNTYYADSVKGRFTISRDNAKNTVYLQMNSLKPEDTAVYYCNAVWRTRDYDYWGQGTQVTVSS”, the “polyreactivity (PSR sort gate)” value was “low polyreactivity”.
In the case of “QVQLVESGGGLLQAGGSLRLSCAASGSTFQWYAMGWYRQAPGKERELVAGITRTGSTYYADSVKGRFTISRDNAKNTVYLQMNSLKPEDTAVYYCAAKWHTASGKYYYWGQGTQVTVSS”, the “polyreactivity (PSR sort gate)” value is reported as “high polyreactivity”.
In the case of “QVQLVESGGGLVQAGGSLRLSCAASGIIFYVNAMGWYRPAPGKDRELVAAITFGGDSTYYADSVKGRFTITRDNAKNTVYLQMNSLKQEDTAVYYWAAEGLSLGGYYYWGQGTQVTVSS”, the “polyreactivity (PSR sort gate)” value is reported as “low polyreactivity”.
For “QVQLVESGGGLVQAGGSLRLSCDASGRIIQQYAMGWYRQAHGKERELVDAISRGGSTYYADSVKGRFTISRDNAKNTVYLQMNSLKPEDTAVYYCAVRSRRGLKYDYWGQGTQVTVSS”, the “polyreactivity (PSR sort gate)” value was “high polyreactivity”.
For “QVQLVESGGGLVHAGGSLRLSCAASGYTFQWYDMGWYRQAPGKERELVASISWRGGSTYYADSVKGRFTISRDHAKNTVYLQMNSLKPEDTAVYYCAASLWPDYEYDYWGQGTQVTVSS”, the “polyreactivity (PSR sort gate)” value was “low polyreactivity”.
In the case of “QVQLVESGGGLVQAGGSLRLSCAASGSTFVHYAMGWYRQAPGKERELVAAINDGGSTHYADSVKGRFTISRDNAKNTVYLQMNSLKPEDTAVYYCAAEYVWYRYPDYWGAYDYWGQGTQVTVSS”, the “polyreactivity (PSR sort gate)” value is reported as “low polyreactivity”.
For “QVQLVESGGGLVQAGGSLRLICAASGSTFFPYAMGWYRQAPGKERELVAGISSDGGTSYADSVKGRFTISRDNAKNTVYLQMNSLKPEDTAVYYCAAYYTHQPAHHYWGQGTQVTVSS”, the “polyreactivity (PSR sort gate)” value was “low polyreactivity”.
In the case of “QDQLVESGGGLVQAGGSLRLSCAASGRIFYTNAMGWYRQAPGKERQLVATISSTGSTNYADSVKGRFTISRDNAKNTVYLQMNSLKPEDTAVYYCATQVGWRTYSHRNRGYYYWGQGTQVTVSS”, the “polyreactivity (PSR sort gate)” value is reported as “high polyreactivity”.
For “QVQLVESGGGLVQAGGSLRLSCAASGSTLPVYAMGWYRQAPGKERELVATITDTGITNYADSVKGRFTLSRDNAKNTVYLQMNSLKPEDTAVYYCAVDSTGVWPYQVGYAPYDYWGQGTQVTVSS”, the “polyreactivity (PSR sort gate)” value was “low polyreactivity”.
With “QVQLVESGGGLVQAGGSLRLSCASSGSIFKANGMGWYRQAPGKEREFVAAITRSGATTYYADSVKGRFTISRDNAKNTVYLQMNSLKTEDTAVYYCNVKAWRDLYYAGFDYWGQGTQVTVSS” the “polyreactivity (PSR sort gate)” value was “low polyreactivity”.
With “QVQLVESGGGLVQAGGSLRLSCAASGLTFGRNAMGWYRQAPGKERELVAAISRSGGRTSYADSVKGRFTISRDNAKNTVYLQMNSLKPEDTAVYYCAARSDVYTHDYWGQGTQVTVSS” the “polyreactivity (PSR sort gate)” value was “high polyreactivity”.
For “QVQLVESGGGLVQAGGSLRLSCAASGSIFNYYDMGWYRQAPGKEREFVARITIGGSSTNYADSVKGRFTISRDNAKNTVYLQMNSLKPEDTAVYYCAASQYGIFFSQMDYWGQGTQVTVSS”, the “polyreactivity (PSR sort gate)” value was “low polyreactivity”.
In the case of “QVQLVETGGGLVQAGGSLRLSCAASGFIFVLNAMGWDRQAPGKEMEFVAAITRSGGSTYYADSVKGRFTISRDNAKNNVYLPMNSLKPEVTAVYYCAVLYHSRDRYTYRDEDYWGQGTQVTVSS”, the “polyreactivity (PSR sort gate)” value is reported as “low polyreactivity”.
With “QVQLVESVGGLVQAGGSLLLSCAAYGDISRYNTMGWYRQAPGKERELVPAITWSGGSTYADSVKGRFTISRDNAKNTVYLQMNSLKPEDTAVYYCAAGAYIWDNYSYRWYDYLGQGTQVTVSS” the “polyreactivity (PSR sort gate)” value was “high polyreactivity”.
